Changes are numbered by the printed parent chain. Names may count otherwise. Each block holds one binder with its values, some of them ahead of it.
What was measured:
[1] = target: the molecule itself; assay: FRET or BRET; donor UBE2J2_(A488) and acceptor UBE2J2_(A594) co-reconstituted in liposomes with 10% or 60% SFAs (P/L = 1:20,000 and 1:5000); 37 °C; 20 mM HEPES/KOH pH 7.4, 150 mM KCl, 5 mM magnesium acetate, 0.1 mM TCEP, 0.2 mg/mL BSA; excitation 480 nm, I614/I516
[2] = target: ubiquitin-activating enzyme E1 (yeast Uba1) (yeast, UniProt P22515 1-1024); assay: cross-linking; UBE2J2 proteoliposomes (10% or 60% SFAs, P/L = 1:32,000) incubated with E1 ± BMOE; with or without pre-incubation with low OG; SDS-PAGE and fluorescence scanning; conditions: both partners purified
Chain of ubiquitin-activating enzyme E1 (yeast Uba1) (P22515 whole entry): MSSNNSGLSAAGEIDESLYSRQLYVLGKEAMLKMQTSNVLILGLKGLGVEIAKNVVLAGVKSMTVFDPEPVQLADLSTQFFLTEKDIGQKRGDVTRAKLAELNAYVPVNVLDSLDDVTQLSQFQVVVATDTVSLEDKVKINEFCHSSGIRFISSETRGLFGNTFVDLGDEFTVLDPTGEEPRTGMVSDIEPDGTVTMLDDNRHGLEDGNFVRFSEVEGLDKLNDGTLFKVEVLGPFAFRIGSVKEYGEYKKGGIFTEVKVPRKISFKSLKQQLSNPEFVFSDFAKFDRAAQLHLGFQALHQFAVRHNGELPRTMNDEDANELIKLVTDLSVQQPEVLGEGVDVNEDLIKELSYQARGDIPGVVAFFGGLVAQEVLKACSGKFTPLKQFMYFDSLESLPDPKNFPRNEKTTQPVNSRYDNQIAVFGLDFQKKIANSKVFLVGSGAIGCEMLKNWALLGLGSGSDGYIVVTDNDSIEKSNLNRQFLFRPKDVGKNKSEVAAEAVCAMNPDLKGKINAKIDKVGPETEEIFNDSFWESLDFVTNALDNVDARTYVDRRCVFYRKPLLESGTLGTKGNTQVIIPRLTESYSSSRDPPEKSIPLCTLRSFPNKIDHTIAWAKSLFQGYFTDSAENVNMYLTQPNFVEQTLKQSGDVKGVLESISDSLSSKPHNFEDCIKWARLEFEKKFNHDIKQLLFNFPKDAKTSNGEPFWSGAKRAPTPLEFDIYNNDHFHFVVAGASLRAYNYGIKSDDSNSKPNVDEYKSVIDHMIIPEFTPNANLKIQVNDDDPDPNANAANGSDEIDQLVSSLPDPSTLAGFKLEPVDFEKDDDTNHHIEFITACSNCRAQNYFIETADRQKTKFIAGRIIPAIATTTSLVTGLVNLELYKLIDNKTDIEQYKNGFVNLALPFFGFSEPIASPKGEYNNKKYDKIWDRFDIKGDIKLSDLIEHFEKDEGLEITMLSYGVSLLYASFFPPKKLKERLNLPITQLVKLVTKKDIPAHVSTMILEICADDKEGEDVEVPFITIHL

binding result [2]: binds
B1: UBE2J2 (full-length, membrane-anchored, fluorescently labeled, reconstituted in liposomes) (enzyme, human, UniProt Q8N2K1 1-259, looked up)
chain: MSSTSSKRAPTTATQRLKQDYLRIKKDPVPYICAEPLPSNILEWHYVVRGPEMTPYEGGYYHGKLIFPREFPFKPPSIYMITPNGRFKCNTRLCLSITDFHPDTWNPAWSVSTILTGLLSFMVEKGPTLGSIETSDFTKRQLAVQSLAFNLKDKVFCELFPEVVEEIKQKQKAQDELSSRPQTLPLPDVVPDGETHLVQNGIQLLNGHAPGAVPNLAGLQQANRHHGLLGGALANLFVIVGFAAFAYTVKYVLRSIAQE
modifications: fluorescent label at the C-terminus by sortase A (fluorophore-conjugated GGC peptide): DL680; Alexa Fluor 488 or Alexa Fluor 594 in the FRET assay
notes: UBE2J2, human, ubiquitin-conjugating enzyme E2 J2 with C-terminal transmembrane segment; The same construct carries different C-terminal dyes in different experiments; also called UBE2J2_(DL680); UBE2J2_(A488)
binding result [1]: binds

binding result [2]: binds
B2: UBE2J2^F137E (membrane-anchored, reconstituted in liposomes) (enzyme, human, UniProt Q8N2K1 1-259, looked up)
chain: B1 chain with F137E
modifications: fluorescently labeled (UBE2J2 variants were fluorescently labeled after affinity purification)
notes: UBE2J2, human, with F137E; also called UBE2J2 F137E mutant
